Assay results taken from US20210340232A1, “MONOCLONAL ANTIBODIES AGAINST HUMAN DICKKOPF3 AND USES THEREOF” (Board of Regents, The University of Texas System, priority 2018, published 2021).

Tests used:
Panc1 cells = assay: Panc1 cell migration and invasion after rhDKK3; assay type: cell-based, human; conditions: Panc1, 10 μg/mL, 24 hours
Procedure: FIGS. 2A-J. DKK3 stimulates HPSC and PDAC activity and increases chemoresistance. (FIG. 2A) HPSC proliferation was measured by MTT after treatment with PBS or rhDKK3 (10 μg/ml). DKK3 was silenced in HPSCs by shDKK3 (FIG. 2B) and cell proliferation was measured by MTT assay (FIG. 2B) and migration was determined at 24 hours (FIG. 2C). Control cells were transfected with scrambled shRNA. (FIG. 2D) Panc1 cells were treated with rhDKK3 (10 μg/ml) or serum-free media control, and cell migration and invasion were measured after 24 hours. (FIGS. 2E-F) Panc1 cells were stably silenced for DKK3 and cell proliferation (FIG. 2E) and colony formation in soft agar (FIG. 2F) were measured. (FIG. 2G) BxPC3 cell migration was measured after treatment with CM from HPSCs or HPSCs silenced for DKK3. Soft agar colony formation (FIG. 2H) in gemcitabine and apoptosis (FIG. 2I) was determined in chemosensitive L3.6p1 cells expressing DKK3 compared with transfection controls. (FIG. 2J) Gemcitabine-induced apoptosis was measured in chemoresistant HS766T cells silenced for DKK3. *p<0.01, **p<0.001, ***p<0.0001, ****p<0.00001.
(§1) Cell-based assays. Cell proliferation was measured by the MTS assay (Promega, Madison, Wis.). […]

NF-κB = NF-κB luciferase reporter assay in Panc28; assay type: cell-based, human; conditions: parental Panc28 cells
Procedure: FIGS. 3A-F. NF-κB is activated in PSCs and PDAC cells by DKK3 and is necessary for DKK3-mediated stimulation of cell activity. (FIG. 3A) Phosphorylation of p65 and IκBα induced by DKK3 treatment (10 μg/ml) was determined by Western blotting. Relative protein loading was shown by using anti-β-actin antibody. (FIG. 3B) Time course of p65 activation by WB in HPSC and Panc1 cells. Cells were treated with recombinant DKK3 (10 μg/ml) for 0-24 h and change in band density relative to baseline were quantified. (FIG. 3C) DKK3 stimulates NFκB luciferase reporter in HPSC & PDAC cells, with mutant luc reporter (MT). NFκB activity induced by DKK3 was measured in Panc28 with phosphorylation-defective IκBαM by luciferase reporter (FIG. 3D) and Western blotting (FIG. 3E). For FIGS. 3C&D, in each set of three columns, the left is “PBS,” the middle is “DKK3,” and the right is “TNFα.” (FIG. 3F) Proliferation of Panc28 and Panc28/IκBαM was measured by MTT assay. *p<0.05, **p<0.01, ***p<0.001 and ****p<0.0001 vs. PBS control.
NF-κB activity. NF-κB activity was determined by using a luciferase reporter assay. […] Luciferase signal was detected by using D-luciferin firefly potassium salt (Caliper Life Sciences, Hopkinton, Mass.) and the IVIS® imaging system (Xenogen Corp., Alameda, Calif.). […]

CD3+ T cells = assay: T cell division assay (CFSE); assay type: cell-based, human; conditions: stimulated CD3+ T cells, DKK3 5-10 μg/mL
Procedure: FIGS. 6A-F. DKK3 blockade is associated with increased tumor immune infiltrates and improves response to checkpoint inhibitor therapy. (FIG. 6A) T cells were stimulated, treated with DKK3 (5-10 μg/mL) and proliferation was measured by CFSE assay. In a syngeneic orthotopic model with luciferase-labeled KPC cells, tumors were examined for CD3 and CD8 expression by IHC (FIG. 6B) and additional markers of T cell activity were measured by quantitative PCR (FIG. 6C). Mice in this model were treated with either control IgG, DKK3 mAb JM6-6-1, αCTLA4 or the combination JM6-6-1+αCTLA4 and tumor growth was measured by IVIS imaging to 25 and 190 days (FIG. 6D). Survival in this orthotopic implantation model is shown in (FIG. 6E). Using a GEMM (FIG. 6F), KPC/DKK3^+/+ (black line) or KPC/DKK3^−/− (blue line) mice were treated with αCTLA4 or control IgG and the Kaplan Meier survival curve is shown. *p<0.05, **p<0.01, ***p<0.001.
T cell division assay. Peripheral blood mononuclear cells (PBMC) were obtained from buffy coat by density centrifugation using Histopaque 1077 (Sigma) and CD3^+ T-cells were isolated using a pan T-cell isolation kit (Miltenyi Biotec). […] DKK3 or HPSC-CM was added and after 96 hours, cells were stained for CD3, CD4, and CD8 to define lineage and analyzed by flow cytometry. […]

recombinant human DKK3 = biological target: T1, recombinant human DKK3 (human, UniProt Q9UBP4 22-350); assay: non-denaturing Western blot of recombinant protein
T1 construct: Bought recombinant protein (R&D); also called rhDKK3; recombinant human DKK-3/His

recombinant mouse DKK3 = biological target: T2, recombinant mouse DKK3 (mouse, UniProt Q9QUN9 23-349, limits assumed); assay: non-denaturing Western blot of recombinant protein
T2 construct: also called murine DKK3

BxPC3 cells [1] = assay: BxPC3 Transwell migration in response to rhDKK3; assay type: cell-based, human; conditions: BxPC3, rhDKK3 10 μg/ml, 48 hours
Procedure: (§2) HPSCs and BxPC3 cells were treated with DKK3 mAb clones JM6-6-1 and JM8-12-1 or isotype control mAb or PBS. (FIGS. 5A-B) HPSC apoptosis and migration as measured by FACS and Transwell migration assay at 48 hours. (FIG. 5C) BxPC3 migration in response to rhDKK3 10 μg/ml as measured by Transwell migration assay at 48 hours. (FIG. 5D) BxPC3 resistance to gemcitabine 100 μM as measured by MTS proliferation assay at 6 days. HPSC-CM, pancreatic stellate cell conditioned media, 10 μg/ml. The orthotopic co-injection BxPC3+ HPSC model of PDAC was used to test the efficacy of DKK3 mAb clones JM6-6-1 or JM8-12-1 (5 mg/kg i.p. once every 5 days). (FIG. 5E) Overall tumor progression was measured every 3-4 days by IVIS imaging. (FIG. 5F) Metastatic tumors in the peritoneal cavity after removal of the primary pancreatic tumor are shown by IVIS imaging. (FIG. 5G) Kaplan Meier survival curve showing mice treated with DKK3 mAb clone JM8-12 (right-most line), control mAb (middle line), or PBS (left-most line). (FIG. 5H) KPC mice (P48-Cre; Kras LSL-G12D;Trp53fl/fl) with either wild type DKK3 (solid lines) or deficient in DKK3 (“DKK3-KO,” dashed lines) were treated with DKK3 mAb JM6-6-1 (5 mg/kg i.p. once every 5 days), PBS or control mAb. […]
as §1

BxPC3 cells [2] = assay: BxPC3 resistance to gemcitabine, MTS proliferation assay; assay type: cell-based, human; conditions: BxPC3, gemcitabine 100 μM, HPSC-CM 10 μg/ml, 6 days
Procedure: as §2, §1

[3] = test system: BxPC3 + HPSC orthotopic tumors; assay: Orthotopic co-injection BxPC3 + HPSC nude mouse model of PDAC; assay type: in vivo; conditions: 5 mg/kg i.p. once every 5 days
Procedure: HPSCs and BxPC3 cells were treated with DKK3 mAb clones JM6-6-1 and JM8-12-1 or isotype control mAb or PBS. (FIGS. 5A-B) HPSC apoptosis and migration as measured by FACS and Transwell migration assay at 48 hours. (FIG. 5C) BxPC3 migration in response to rhDKK3 10 μg/ml as measured by Transwell migration assay at 48 hours. (FIG. 5D) BxPC3 resistance to gemcitabine 100 μM as measured by MTS proliferation assay at 6 days. HPSC-CM, pancreatic stellate cell conditioned media, 10 μg/ml. The orthotopic co-injection BxPC3+ HPSC model of PDAC was used to test the efficacy of DKK3 mAb clones JM6-6-1 or JM8-12-1 (5 mg/kg i.p. once every 5 days). (FIG. 5E) Overall tumor progression was measured every 3-4 days by IVIS imaging. (FIG. 5F) Metastatic tumors in the peritoneal cavity after removal of the primary pancreatic tumor are shown by IVIS imaging. (FIG. 5G) Kaplan Meier survival curve showing mice treated with DKK3 mAb clone JM8-12 (right-most line), control mAb (middle line), or PBS (left-most line). (FIG. 5H) KPC mice (P48-Cre; Kras LSL-G12D;Trp53fl/fl) with either wild type DKK3 (solid lines) or deficient in DKK3 (“DKK3-KO,” dashed lines) were treated with DKK3 mAb JM6-6-1 (5 mg/kg i.p. once every 5 days), PBS or control mAb. Kaplan Meier survival curve is shown with hazard ratios (Log-rank test). *p<0.05, **p<0.01, ***p<0.001, ****p<0.0001 vs. control Ab.
An orthotopic nude mouse model of PDAC using BxPC3 cancer cells labeled with firefly luciferase (BxPC3-FL) co-injected with HPSCs has been previously described (Hwang et al., 2008). Mice received intrapancreatic injections of BxPC3-FL (1×10^6 per mouse) with HPSC-shControl or HPSC-shDKK3 in a tumor-to-stroma ratio of 1:0 or 1:3 in 50-μL of HBSS and tumor growth was monitored using IVIS imaging (Hwang et al., 2008). In addition, a syngeneic immunocompetent DKK3 null model was used, provided by Dr. C. Niehrs (Barrantes Idel et al., 2006), that was injected with murine PDAC cells (termed “KPC cells”) isolated from tumors arising in a GEMM of PDAC (Pdx1-Cre; Kras^LSL-G12D;Trp53^R172H/+) (Hingorani et al., 2005; Hingorani et al., 2003) and labeled with luciferase.
The efficacy of DKK3 mAb was tested in vivo using the previously described orthotopic co-implantation nude mouse model of PDAC with human PSCs mixed with luciferase-labeled BxPC3 cancer cells (1:3 tumor:PSC ratio). Mice were treated with either phosphate-buffered saline (PBS), isotype control mAb, or DKK3 mAb (clone JM6-6-1; 5 mg/kg i.p. once every 5 days) and tumor growth was followed with IVIS imaging. […] Tumors in the PBS and control mAb groups grew rapidly from day 22 onward, with an 8-fold increase in the luciferase signal.

T1 sequence (Q9UBP4 22-350 limits assumed): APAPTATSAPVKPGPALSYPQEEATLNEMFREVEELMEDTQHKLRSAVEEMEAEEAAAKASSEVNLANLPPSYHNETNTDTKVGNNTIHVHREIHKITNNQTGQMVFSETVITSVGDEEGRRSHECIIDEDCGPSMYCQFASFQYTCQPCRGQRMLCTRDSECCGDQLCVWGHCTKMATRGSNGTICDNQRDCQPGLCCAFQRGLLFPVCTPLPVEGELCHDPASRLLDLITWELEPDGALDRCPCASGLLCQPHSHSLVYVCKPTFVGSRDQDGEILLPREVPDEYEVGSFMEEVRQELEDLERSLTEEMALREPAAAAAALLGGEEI
T2 sequence (Q9QUN9 23-349 limits assumed): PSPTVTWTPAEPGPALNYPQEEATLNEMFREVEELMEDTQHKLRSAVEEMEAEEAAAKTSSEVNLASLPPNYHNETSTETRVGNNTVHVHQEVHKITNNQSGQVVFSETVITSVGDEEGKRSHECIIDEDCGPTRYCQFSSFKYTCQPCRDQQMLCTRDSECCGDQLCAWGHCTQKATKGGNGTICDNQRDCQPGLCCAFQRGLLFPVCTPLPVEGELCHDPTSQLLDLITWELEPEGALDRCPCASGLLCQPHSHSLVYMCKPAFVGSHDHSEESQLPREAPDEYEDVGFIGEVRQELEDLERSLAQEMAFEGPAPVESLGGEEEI

## rhDKK3: recombinant human DKK3 (R&D)
Panc1 cells
  increase in invasion vs PBS controls: > 3 fold
  increase in migration vs PBS controls: ~100%
NF-κB
  induction of NF-κB promoter activity relative to PBS control: 33%
CD3+ T cells
  inhibition of cell proliferation compared to media alone: 4.7-11.5 fold

B1: DKK3 mAb clone JM6-6-1 (antibody, V domains shown)
VH: EVKLVESGGGLVKPGGSLKLSCAASGFTFTIEYMAWIRQTPEKRLEWVASISSGGDDIYYADNVKGRFTISRDNAKNTLYLQMSSLKSEDTAIYYCSRSLSDWGQGTTLTVSS
VL: MTQTPLSLPVSLGDQASISCRSSQSILHSNGHTYLEWYLQKPGQSPKLLIYKVSNRFSGVPDRFSGSGSGTDFTLKISRVEAEDLGVYYCFQGSHVPFTFGSGTKLEIER
notes: Mouse hybridoma mAb from A/J mice immunized with recombinant human DKK-3/His; the negative control is an IgG1 isotype control; also called anti-DKK3 mAb JM6-6-1; DKK3 antibody JM6-6-1
Recombinant human DKK3
  binding result: binds
Recombinant mouse DKK3
  binding result: binds

B2: JM8-12-1: monoclonal antibody against human DKK3; heavy chain variable SEQ ID NO: 17, light chain variable SEQ ID NO: 18 (tabled as JM8-12-2) (antibody, V domains shown)
VH: MKPSQSLSLTCTVTGYSITSDYAWNWIRQFPGNKLEWMGYISYRGSTRYNPSLKSRISITRDTSKNQLYLQLHSVTTEDTATYYCVHDGYYWVQQTLVTVSAAKTTPPSDY
VL: QDPRVDIVLTQSPASLAVSLFQRATISYRASKSVSTSGYSYMHWNQQKPGQPPRLLIYLVSNLESGVPARFSGSGSGTDFTLNIHPVEEEDAATYYCQHIRELTRSEGGPSWK
BxPC3 cells [1]
  effect on DKK3-mediated induction of migration: reverse the DKK3-mediated induction of migration
BxPC3 cells [2]
  effect on DKK3-mediated chemoresistance to gemcitabine: abrogated the DKK3-mediated induction of chemoresistance to gemcitabine
[3]
  hazard ratio compared with PBS control group: 0.26
  median survival: 50 days
